This assay has as its target Echovirus 18 (E18) mature (full) virus particle, strain HeB15-254 (echovirus 18 (strain HeB15-254)). The assay can be described thus: SPR; Biacore 3000, 25 C; biotinylated full E18 particles in PBS with Tween immobilised on streptavidin (SA) chips; FcRn or CD55 flowed at 31.25 nM to 2,000 nM; pH 7.4; 1:1 binding model.

The substance “soluble ectodomain of human neonatal Fc receptor (FcRn): FCGRT (A16-L282) with B2M (from UniProt P61769 21-119) (complex)” displayed a Kd of 343 nM. That is a sub-micromolar value.

Source of the values: article PMC9426509.
